The data set deals with MS2 coat protein. The data set is described as follows: apparent KD of MS2 coat protein; designed switch direction (-1 OFF switch, 1 ON switch): -1; higher = weaker reporter binding. A digest of the protocol: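 On Illumina chips, designed RNA switches with common flanks were made by stalled E. coli RNA polymerase. Titrations with SNAP-549-labelled MS2 coat protein, doubling from 0.7 or 1.5 nM to 3 µM, were done with no input, with 200 uM small-molecule ligand, or with an oligonucleotide input. Apparent KD is the median per design over clusters, from curve fits of normalised cluster fluorescence.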

The mark [1] stands for this setting: Eterna round: R95, input ligand: FMN 200 uM.
Setting [2] is: Eterna round: R95, input ligand: microRNA oligo, concentration not stated.
Where [3] appears, read: Eterna round: R95, input ligand: none.
Setting [4] is: input ligand: microRNA oligo, concentration not stated.

For “AAGAAACGAGGAUAUACAGUUGAGUGAGAGAGGGAAGUGUUACAUGAGGAUCACCCAUGUAGAAGGCGUGAGAG [JR_Exclu2_Sub088] (puzzle: Exclusion 2)”, the “apparent KD of MS2 coat protein” value by setting is: under setting [1], 0.0329 µM; under setting [2], 0.0314 µM; under setting [3], 0.0336 µM.

Turning to “UACAUGAGGAUCACCCAUGUUUUGUCGUGUAUGGUAUUUAUCUAGGAUAUCAAUCUAUUAAUUUAUGAGAAGGAGAAUAUUAAU [JMF's solution 52] (Eterna round: R96, puzzle: Exclusion NG 3)”, the “apparent KD of MS2 coat protein” value under setting [4] was found to be 0.0288 µM.

For “GUCCUCGUGGCGCCUAAACACAUGAGGAUCACCCAUGUACAGGCUUUUUGCCGUCUUAUAAUAAAACCGAGGAUACG [Zaveonqu] (puzzle: Sensor v3, turn-off variant 1)”, the “apparent KD of MS2 coat protein” value under setting [1] came to 0.0203 µM, the “apparent KD of MS2 coat protein” value under setting [2] was determined as 0.121 µM and the “apparent KD of MS2 coat protein” value under setting [3] worked out at 0.0209 µM.

Take “GGGCUGCGACACAGCCCAACAAAACAUGAGGAUCACCCAUGUCAGGAUAUACCGAUGCAGCAUCUGUAGAAGGGACAGAUCCAA [Usorxe] (Eterna round: R96, puzzle: Exclusion NG 3)”: the “apparent KD of MS2 coat protein” value (input ligand: FMN 200 uM) stood at 0.12 µM, the “apparent KD of MS2 coat protein” value under setting [4] was found to be 0.0881 µM and the “apparent KD of MS2 coat protein” value (input ligand: none) came to 0.0663 µM.

As for “UAGCAUUGCCAAAGGUAGUGCAAAACAUGAGGAUCACCCAUGUAGGAUAUGGUAGGCAAAGCUUACCAGAAGGACAUGAUAAAU [Mat - Exclusion NG 3 - Mod of JL - D18] (Eterna round: R96, puzzle: Exclusion NG 3)”, the “apparent KD of MS2 coat protein” value by setting is: (input ligand: FMN 200 uM) 0.327 µM; under setting [4], 0.0397 µM; (input ligand: none) 0.0545 µM.

“GCAAGCUUAAUCAGUAUGAACAUGAGGAUCACCCAUGUAUAAGGUAAUCCUUUUGGGCCCUUUAUUACUCGUCUUAU [JR_STOV1_Sub028] (Eterna round: R97, puzzle: Sensor, turn-off variant 1)”: the “apparent KD of MS2 coat protein” value is, setting by setting: (input ligand: FMN 200 uM) 0.322 µM; (input ligand: none) 0.405 µM.

For “AGUGUGUGGCAGGAUAUUCUAAUCGUGAGUAGGGAAGAAGGGUCUACAUGAGGAUCACCCAUGUAAGCGGUUGA [Ex6 #43] (Eterna round: R97, puzzle: Exclusion 6)”, the “apparent KD of MS2 coat protein” value was determined as 0.257 µM (input ligand: FMN 200 uM) and 0.209 µM (input ligand: none).

In the case of “GCACGAAGUGUAGGAUAUCUGUGCGAUUAGCUCAGAGAAGGACACAUGAGGAUCACCCAUGUGUUUCACGGAAACGAAACGUGC [Eli exng1 - 054] (Eterna round: R96, puzzle: Exclusion NG 1)”, the “apparent KD of MS2 coat protein” value is, setting by setting: (input ligand: FMN 200 uM) 0.0107 µM; under setting [4], 0.00954 µM; (input ligand: none) 0.0162 µM.

Take “UAAUUAAAUGUAGGAUAUCUGCACGUUUAGUGCAGAGAAGGACAUGAGGAUCACCCAUGUAGAUCAAAUUAAAUUAAUUUAAUU [ENG1/5-D2] (Eterna round: R96, puzzle: Exclusion NG 1)”: the “apparent KD of MS2 coat protein” value worked out at 0.0996 µM (input ligand: FMN 200 uM), 0.0257 µM under setting [4] and 0.0338 µM (input ligand: none).

With “UUUUUUGUUGUGAGGAUAUCGUUGUUGUUGUGGAUCGAGAAGGCACAUGAGGAUCACCCAUGUUUGUUGUGGUU [JR_BMOE4_Sub086] (puzzle: Brourd's mod of Exclusion 4)”, the “apparent KD of MS2 coat protein” value under setting [2] stood at 0.0837 µM.

For “CUCCUCAUGGCGCCUAAACACAUGAGGAUCACCCAUGUACAGGCUCUUUGCCGUCUUAUAAUAAAACCGAGGAUGCG [Ageusan] (puzzle: Sensor v3, turn-off variant 1)”, the “apparent KD of MS2 coat protein” value runs as follows: under setting [1], 0.0402 µM; under setting [2], 0.219 µM; under setting [3], 0.0364 µM.

Consider “UCUCGACAUGAGGAUCACCCAUGUCAGGAUAUUGUAUUGGAGGUUUUUUACCUUAUGGCAAGAAGGGAUGUGUG [LRO-Excl1-24] (puzzle: Exclusion 1)”, for which the “apparent KD of MS2 coat protein” value under setting [2] worked out at 0.0183 µM.

On to “GCGAUUUCCGAGGAUAUCCUGCACACUAUCUAAGGAGAAGGCGGAACUUGAGGAUCACCCAAGUGCAUCCGAAU [Isusbe] (Eterna round: R97, puzzle: Exclusion 6)”, for which the “apparent KD of MS2 coat protein” value reads like this: (input ligand: FMN 200 uM) 0.135 µM; (input ligand: none) 0.0395 µM.

As for “GCGUGACAUGAGGAUCACCCAUGUGAGGAUAUCUGGAUACUCUUUAUUUUAGAUAUCCAGAGAAGGCACAUGCU [Ex1-3: 4Z] (puzzle: Exclusion 1)”, under setting [2], the “apparent KD of MS2 coat protein” value was 0.191 µM.

For “AUAAUUUAAGUCAGGAUAUACCUAUGGAAACAUAGGUAGAAGGGACAUGAGGAUCACCCAUGUUUAUAUACAUA [Fiskers BMX 4 - 4] (puzzle: Brourd's mod of Exclusion 4)”, the “apparent KD of MS2 coat protein” value is, setting by setting: under setting [1], 0.0298 µM; under setting [2], 0.0168 µM; under setting [3], 0.0151 µM.

In the case of “CUUAGCCUAAAAUCACGCAAGCCUUUUGCUUGUCUUAAGACAUGAGGAUCACCCAUGUCCGGGCUGAACUUAUGGAA [Geanon] (puzzle: Sensor v3, turn-off variant 2)”, the “apparent KD of MS2 coat protein” value was 0.0174 µM under setting [1], 0.0333 µM under setting [2] and 0.0166 µM under setting [3].

Turning to “AGUUCAAGGAAUUCUUCUGACAUGAGGAUCACCCAUGUGCUUUGCAAGUGUUGCUCGUCGCCUAGAACGUUAAGUAA [Eternabot (Original) Solution 32] (Eterna round: R97, puzzle: Sensor, turn-off variant 1)”, the “apparent KD of MS2 coat protein” value was 0.158 µM (input ligand: FMN 200 uM) and 0.225 µM (input ligand: none).

For “AAGAAGCUAGGAUAUACAUGAGGAUCACCCAUGUCUCCAUGGUUGACGAGUUCCGCACGUAGAAGGAGCAAAAC [Aerdidima] (Eterna round: R97, puzzle: Exclusion 3)”, the “apparent KD of MS2 coat protein” value reads like this: (input ligand: FMN 200 uM) 0.225 µM; (input ligand: none) 0.0567 µM.

Regarding “AGCGGUGUUCAGGAUAUCUGGUUAUGACACAUGAGAGAAGGGAGCACAUGAGGAUCACCCAUGUGACCUUCGCG [Eternabot (Original) Solution 23] (Eterna round: R97, puzzle: Exclusion 6)”, the “apparent KD of MS2 coat protein” value is, setting by setting: (input ligand: FMN 200 uM) 0.016 µM; (input ligand: none) 0.0155 µM.

Consider “AGCUGUGGCCGAGGAUAUCUAAACCUUCAAACCGAGGUAUACUCGGACAUGAGGAUCACCCAUGUAGAGAAGGCGGUCUCAGCA [Eli eng2 - 035] (Eterna round: R96, puzzle: Exclusion NG 2)”, for which the “apparent KD of MS2 coat protein” value came to 0.0347 µM (input ligand: FMN 200 uM), 0.00978 µM under setting [4] and 0.0134 µM (input ligand: none).

Regarding “UUUCGUGCGCGGGUUUUUUACAUGAGGAUCACCCAUGUCCUCUGCUUGUCUUGUCUUGGGCUUUUUUUGGGUUCGGG [-19.7, -39 kcal, A 8%] (Eterna round: R97, puzzle: Sensor, turn-off variant 1)”, the “apparent KD of MS2 coat protein” value reads like this: (input ligand: FMN 200 uM) 0.771 µM; (input ligand: none) 0.868 µM.

In the case of “UCAUACGGUGAGGAUAUCUCCACUAAAGUGUGUAGAGAAGGCGCUACAUGAGGAUCACCCAUGUUUAUGGGCAG [Ex-6 Malc#13] (puzzle: Exclusion 6)”, the “apparent KD of MS2 coat protein” value amounted to 0.052 µM under setting [1], 0.109 µM under setting [2] and 0.124 µM under setting [3].

With “CAGGAUAGAGGAUAUACGUAGAUACAGAUUCAUGUAAUCCUACAUGAGGAUCACCCAUGUAGAAGGCUAUCCUG [Fiskers Ex 2 - 18] (puzzle: Exclusion 2)”, under setting [2], the “apparent KD of MS2 coat protein” value came to 0.0176 µM.

Take “UCUUAUUGCAAGGAUAUGCUUUUUAUUUCUUUUGCAGAAGGUGCAACAUGAGGAUCACCCAUGUUUCCGGGUAU [JR_E6_Sub034] (puzzle: Exclusion 6)”: the “apparent KD of MS2 coat protein” value under setting [2] amounted to 0.0238 µM.

Regarding “GAAAAGGUAGGAUAUACGUAAAAAAAGGGUAGAAAAAAAACACAUGAGGAUCACCCAUGUAGAAGGACCAAAAG [salish99_ex2_r3_087] (puzzle: Exclusion 2)”, the “apparent KD of MS2 coat protein” value was 0.0883 µM under setting [1], 0.0247 µM under setting [2] and 0.0206 µM under setting [3].

For “AAGGCCUGAGGAUAUCAGAGUCUAAACAUGAGGAUCACCCAUGUGAACCUGGUCAGUCUGUGAGAAGGUAGUGCUC [Tequat] (puzzle: Exclusion 5)”, the “apparent KD of MS2 coat protein” value reads like this: under setting [1], 0.0395 µM; under setting [2], 0.0398 µM; under setting [3], 0.0573 µM.

Consider “GUUUUCAGACGGAGAUCCUACAUGAGGAUCACCCAUGUCUCACAAGCUAAUUGCUCGUCUUAUUCUCCUCUGUUCUC [Elimod 40 - Jieux - Sensor, turn-off variant 1] (Eterna round: R97, puzzle: Sensor, turn-off variant 1)”, for which the “apparent KD of MS2 coat protein” value was found to be 0.0218 µM (input ligand: FMN 200 uM) and 0.0243 µM (input ligand: none).

Turning to “AUACCACGAGGAUAUCGUCUAUAAUACAUGAGGAUCACCCAUGUUAUAUCUGUAAUGUUUCGAGAAGGCGUGUGUU [JR_E5_Sub084] (puzzle: Exclusion 5)”, the “apparent KD of MS2 coat protein” value under setting [2] came out at 0.0179 µM.

As to “GUAAUUAAUGUAGGAUAUGCAAGGCGAACCUAAGCAGAAGGACAUGUGGAUCACCCAUGUAAUGCGGUCUGCGUACAGAUCGCU [salish99_ex1_NG1_002] (Eterna round: R96, puzzle: Exclusion NG 1)”, the “apparent KD of MS2 coat protein” value was determined as 0.507 µM (input ligand: FMN 200 uM), 0.103 µM under setting [4] and 0.0602 µM (input ligand: none).

“UCUGGUCGAGGAUAUACGUGAGGUGUUUCGGCACUAGGUCUACAUGAGGAUCACCCAUGUAGAAGGCGAUCAGA [EX2 #64] (Eterna round: R97, puzzle: Exclusion 2)”: the “apparent KD of MS2 coat protein” value (input ligand: FMN 200 uM) is 0.536 µM and the “apparent KD of MS2 coat protein” value (input ligand: none) was determined as 0.0606 µM.

Take “GCGGAUUAUGUAGGAUAUCGGUCAGUUUCUGAUCGAGAAGGACAUGAGGAUCACCCAUGUAAAUUCCUCGCUUUGUGAGGCCGC [JL ENG1 3.64] (Eterna round: R96, puzzle: Exclusion NG 1)”: the “apparent KD of MS2 coat protein” value is 0.0315 µM (input ligand: FMN 200 uM), 0.0156 µM under setting [4] and 0.0178 µM (input ligand: none).
